Source: PMC4077652, “An Unstable Th Epitope of P. falciparum Fosters Central Memory T Cells and Anti-CS Antibody Responses” (PLoS ONE, 2014)

B1: unnamed (parent)
chain 1: QNSLSTEWSPCSVT
chain 2: not shown
chain 3: not shown

Variants of: B1
Experiment: binding inhibition (competition) assay with biotin-labeled HA 306-318
Details: peptides tested at 0 to 100 µM, read off a plot

In order of falling IC50:
1. chain 1 P10A  7800 nM
2. chain 1 E7A  3500 nM
3. chain 1 N2A  2700 nM
4. chain 1 W8A  1500 nM
5. chain 1 T6A  1300 nM
6. chain 1 Q1A  1200 nM
7. chain 1 S3A  1100 nM
8. chain 1 S5A  950 nM
9. chain 1 C11A  800 nM
10. chain 1 S12A  800 nM
11. chain 1 T14A  800 nM
12. chain 1 V13A  500 nM
